Experiments:
alpha subunit (GPIIb) = target: T1, alpha subunit (GPIIb) (Homo sapiens, UniProt P05106+P08514); experiment: Chemical crosslinking of 125I-labeled RGD peptide to platelets (BS3), SDS-PAGE and autoradiography; type: binding; conditions: 125I-Fn-7 20 μM, thrombin-stimulated platelets, 45 min at 22° C., BS3 0.2 mM
T1 construct: Platelets were isolated from fresh human blood collected into acid/citrate/dextrose; endogenous in cells; host or cells: washed human platelets, thrombin-stimulated

beta subunit (GPIIIa) = target: T2, beta subunit (GPIIIa) (Homo sapiens, UniProt P05106+P08514); experiment: as above; type: binding; conditions: 125I-Fn-7 20 μM, thrombin-stimulated platelets, 45 min at 22° C., BS3 0.2 mM
T2 construct: Platelets were isolated from fresh human blood collected into acid/citrate/dextrose; endogenous in cells; host or cells: washed human platelets, thrombin-stimulated or nonstimulated
Procedure: FIG. 2 illustrates the results of the crosslinking of an RGD peptide to discrete sites in the beta subunit (GPIIIa) of an Integrin adhesion receptor. The ^125 I-labeled RGD peptide, Fn-7 (20 μM), was bound to platelet (6×10^8 /ml) for 45 min at 22° C., and crosslinked with BS^3 (0.2 mM). The fragmentation patterns after proteolysis were analyzed by SDS-PAGE [Laemmli, Nature. 227:680 (1970)] and autoradiography. […] Lanes 2-7, GPIIIa:Fn-7 bands were excised from gels, subjected to proteolysis and then analyzed by SDS-PAGE (15% gels, reducing conditions). For lanes 2-5, GPIIIA:Fn-7 bands were excised and digestions with V-8 protease were performed within the gel slices as described in Cleveland et al., J. Biol. Chem., 252:1102 (1977).
Platelet binding of Fn-7 followed the protocols previously described for measuring platelet interactions with adhesive proteins and with this and other peptides. See, Ginsberg et al., J. Biol. Chem., 260:3931-3936 (1985); Lam et al , Fed. Proc. Fed. Am. Soc. Exp. Biol., 44:1126 (1985); and Marguerie et al., supra. […]
The cell-bound ligand was recovered by centrifugation through 20% sucrose, and the cells were extracted in PBS containing 1% Nonidet P40 and […] N-ethylmaleimide (Sigma). […] The cross-linked samples were analyzed by electrophoresis (SDS-PAGE) on polyacrylamide vertical slab gels in the buffer system of Laemmli, Nature, […] (1970). […]

crosslinking to the alpha subunit (GPIIb) (alpha subunit (GPIIb)): more minor crosslinking
crosslinking to the beta subunit (GPIIIa) (beta subunit (GPIIIa)): predominance
Sequence: KYGRRGDS [Fn-7, RGD-peptide with lysine for crosslinking and tyrosine for radioiodination]

— patent US5204445A, “Peptides and antibodies that inhibit integrin-ligand binding” (The Scripps Research Institute, priority 1989, dated 1993)
